According to patent publication US20240173424A1, “ANTI-NECTIN-4-ANTIBODY EXATECAN CONJUGATES” (EMERGENCE THERAPEUTICS AG, priority 2021, published 2024):

Legend:
[1] = molecular target: T1, Nectin-4 expressed by tumors and Nectin-4 expressed by human keratinocytes (Homo sapiens, UniProt Q96NY8); test: Differential binding to tumor cells and human keratinocytes
T1 construct: Cells or cell lines (10,000-50,000) expressing Nectin-4 (naturally or transfected); endogenous in cells; host or cells: SUM190/SUM190PT (also SUM149 in IHC), NHEK differentiated with 0.1 mM CaCl2, human skin sections
T1 sequence (Q96NY8 32-510): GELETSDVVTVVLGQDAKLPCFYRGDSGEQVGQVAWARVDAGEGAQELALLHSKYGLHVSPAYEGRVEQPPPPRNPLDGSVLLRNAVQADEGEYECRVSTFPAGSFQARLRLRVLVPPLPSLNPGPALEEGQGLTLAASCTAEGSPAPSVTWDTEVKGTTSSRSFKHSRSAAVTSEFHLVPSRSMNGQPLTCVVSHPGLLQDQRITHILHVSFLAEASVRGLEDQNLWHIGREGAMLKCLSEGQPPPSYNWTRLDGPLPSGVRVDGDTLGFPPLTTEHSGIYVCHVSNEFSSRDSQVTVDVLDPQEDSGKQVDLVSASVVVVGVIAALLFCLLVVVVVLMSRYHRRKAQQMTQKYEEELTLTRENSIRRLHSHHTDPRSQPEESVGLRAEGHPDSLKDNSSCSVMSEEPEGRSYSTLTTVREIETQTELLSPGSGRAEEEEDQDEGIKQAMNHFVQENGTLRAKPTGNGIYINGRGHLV
Source text: FIG. 6: Differential binding to Nectin-4 expressed by tumor cell line and normal differentiated human keratinocytes. […] Cells were then stained with phycoerythrin conjugate goat anti human Fc antibody. Normalized mean fluorescence intensities are shown. Non-linear curve fitting (4 parameters) was done with GraphPad Prism 9 software. Horizontal bar is placed at 50% of maximum staining intensity obtained with HA22 antibody on SUM190 cells.
FIG. 7: Differential binding to Nectin-4 expressed by tumor cell line and normal differentiated human keratinocytes. Detection by flow cytometry. • Flow cytometry analysis of TNBC cell line (SUM190, A) and normal differentiated (0.1 mM CaCl2) human keratinocytes (NHEK, B) using 5 μg/mL of HA22 (Enfortumab), Ch-5A12.2, Ch-15A7.5, and Ch-8F06. Cells were then stained with phycoerythrin conjugate goat anti human Fc antibody. Normalized mean fluorescence intensities are shown.
FIG. 8: Differential binding to Nectin-4 expressed by tumor cell line and human keratinocytes. Detection by immuno-histochemistry. Cryo-preserved OCT-embedded blocks of high expressing levels of Nectin-4 tumor cell line (SUM190), low expressing levels of Nectin-4 tumor cell line (SUM149), human and cynomolgus skin were processed for staining with 15A7.5 mAb (A) and 9A2.7 mAb (B). Quick score reported for each mAb are shown (A, B). C, ratio of quick score SUM190 over human skin. […]
Remaining blocks were stored at −80° C. until further use. […] Several dilution of each mAb were tested to optimize noise to signal ratio and 0.5 μg/ml of mouse 15A7.5 mAb and 10 µg/mL of mouse 9A2.7 mAb were determined as optimal. […] Both the stained cells proportion and the staining intensity were evaluated for each field. […] Scoring procedure was as follows: (i) The proportion of cells stained positively was estimated and a score from 0 to 4 was be assigned for each field (0=0-5%; 1=5-25%; 2=25-50%; 3=50-75%; and 4=75-100%); and (ii) The staining intensity was scored as 0, 1, 2, or 3 corresponding to the presence of negative, weak, intermediate, and strong brown staining, respectively. […]

[2] = tested on: SUM190PT cells and normal human differentiated keratinocytes; test: Internalization assay with pHAB dye conjugates, tumor cell line and keratinocytes; assay type: cell-based; conditions: in vitro, in reference to HA22 mAb (Enfortumab)
Method: FIG. 9: Differential internalization in tumor cell line and human keratinocytes. Detection by fluorescence Enfortumab (HA22), Ch-15A7.5 and Isotypic control mAbs were coupled to pHAB thiol reactive dye to reach dye antibody ratio comprised between 4.58 and 5.55. A dose range of each of these antibody dye conjugates (1.6 ng/ml-5 μg/mL) was incubated in duplicates with SUM190PT Nectin-4-expressing cell line (A) normal human differentiated (0.1 mM CaCl2) keratinocytes (B). Intracellular fluorescence was recorded after 24 hours with florescence microplate reader (ClarioStar). Reported are the fluorescence intensities in function of dye antibody conjugate concentration.
Ten thousand SUM190PT or human differentiated keratinocytes (0.1 mM CaCl2) were seeded in 96-wells plates and subsequently incubated for 24 hours at 37° C., with a dose range (1.6 ng/ml-1 μg/mL) of anti Nectin-4 mAbs and isotypic control conjugated with pHAB thiol reactive dye. Upon internalization and endo-lysosomal processing, the acidic environment causes the dye to fluoresce. Fluorescence intensity was monitored on a plate reader with an excitation at 532 nm and an emission at 560 nm.
The thiol reactive dye pHAB (Promega) was conjugated to cysteine of selected anti-Nectin-4 ThiomAb (D265C, L234A, L235A) antibodies using maleimide chemistry according to manufacturer's instructions. […]

[3] = tested on: SUM190PT cells and normal human differentiated keratinocytes; assay type: cell-based
Method: FIG. 10: Differential in vitro cytotoxic activity to tumor cells and normal differentiated human keratinocytes. […] Viability (MTT assay) after a 5-days incubation period is reported. EC50 values were determined by GraphPad Prism 9 software using non-linear curve fitting (4 parameters). […] Data shown is representative of 2 different Nectin-4 expressing tumor cell lines (SUM190PT and MDA-MB468) and 3 independent donors for human keratinocytes.
To analyze the in vitro cytotoxic activity of ADC, cell viability was assessed using the AlamarBlue staining protocol as recommended by the manufacturer (Biosource, CA, USA). The test incorporates a fluorescent oxidation-reduction indicator. Fluorescence intensity is proportional to cellular metabolic reduction. Experiments were done by incubating 3000 cells/well (SUM190PT or differentiated NHEK) in triplicate with serial dilutions of ADC at Day 0 in 96-wells plates. AlamarBlue was measured at Day 5 by incubating 1/10 volume of alamarBlue solution for 2 h at 37° C. and read at 595 nm (FLUOstar Optima, BMG Labtech).

In vivo half-life = conditions: due to a lower absorption rate in the skin

affinity to Nectin-4 expressed by tumors in comparison to Nectin-4 expressed by human keratinocytes ([1]; in vitro differentiated Nectin-4 expressing keratinocytes): higher affinity | binding affinity towards keratinocytes in comparison to tumor cells ([1]; in vitro, in reference to HA22 mAb (Enfortumab)): lower binding affinity
B1: mAb 15A7.5: parental monoclonal anti-Nectin-4 antibody, CDRs SEQ ID NO: 1-12, VH/VL SEQ ID NO: 13/14 (antibody, V domains shown)
VH: EVKLVESGGGLVQPGGSRKLSCAASGFTFSNYGMAWVRQAPGKGPEWVAFISNLAYGINYADTVTGRFTISRENAKNTLYLEMRSLRSEDTAMYYCARGARATGWFAYWGQGTLVTVSA
VL: DIVMTQSQKFMSTSIGDRVSVTCKASQNVDTHVAWYQEKPGQSPKALIYSASYRYSGVPDRFTGSGSGTDFTLTISNVQSEDLADYFCQQYNSYPLTFGGGTKLEIK
modifications: VH_15A7.5; VK_15A7.5
internalization towards keratinocytes in comparison to tumor cells [2]: lower | cytotoxic activity towards keratinocytes in comparison to tumor cells [3]: lower | half-life (In vivo half-life): higher half-life
